According to the DeepSol protein solubility set:

Assay: soluble on expression in E. coli; label from the status in PepcDB or PDB records

Row | Sequence | soluble on expression in E. coli
1 | MSEQTVQVKTTGKILQSPCGPIIHGLEDVLIKSTSISDIDGEKGILWYRGYRIEELARLSTYEEVSYLILYGRLPTKRELEDYINRMKKYRELHPATVEVIRNLAKAHPMFALEAAVAAEGAYDEDNQKLIEALSVGRYKAEEKELAYRIAEKLVAKMPTIVAYHYRFSRGLEVVRPRDDLGHAANFLYMMFGREPDPLASRGIDLYLILHADHEVPASTFAAHVVASTLSDLYSSVAAAIAALKGPLHGGANEMAVRNYLEIGTPAKAKEIVEAATKPGGPKLMGVGHRVYKAYDPRAKIFKEFSRDYVAKFGDPQNLFAIASAIEQEVLSHPYFQQRKLYPNVDFWSGIAFYYMGIPYEYFTPIFAMSRVVGWVAHVLEYWENNRIFRPRACYIGPHDLQYIPLEQR | soluble
2 | MGHHHHHHSHVAEGQEPAEFWDLLGGKTPYANDKRLQQEILDVQSRLFECSNKTGQFVVTEITDFTQDDLNPTDVMLLDTWDQVFLWIGAEANATEKESALATAQQYLHTHPSGRDPDTPILIIKQGFEPPIFTGWFLAWDPNIWSAGKTYEQLKEELGDAAAIMRITADMKNATLSLNSNDSEPKYYPIAVLLKNQNQELPEDV | soluble
3 | MGKRMTFDTAKSRFQEKFPHLELLEFSGIYKPSSVRCPTHGVVQLLYYDTAIKSKYGCPECGKLKMKENTPPQNQKPVSILDTATGETLTFPSVQAAAKALNTPYGSIRTKLDGRSNPDNLVCNRYKVLL | soluble
4 | MAHHHHHHMMSRFETSPRDRRYNSAVRSSLFSFVLRRRRNLHDKKKPPLSANGPLTSVVHPRARNHLPDEVNLTTTLVRSCFCINIAPLPARSCASYSPRCSEQTVSRFFPHPFTFRASAIRGHNARLQLRRCTHHFLETPL | not soluble
5 | MSLKTPAREIITDYAQAHFRYFRTADGTVYAQRNGHPVARPIRSQGTTGSHRQELMVGLFKDGIGVFNGTAMKEALDLIEALALTEDVQPVHIRVAPGFDGATWLDLGRDDGRSVRIHPTGWDIAIPDPREVCWRRTQLTGELPVPIKDTDGKGIDLLLRLCNFATAETECLAIAWLIGCLGPSVPVPAPFLTGPQGAGKSTGGRMLVRIIEGMTGDLRRAPKDEENLIAAVAAGWVTALDNLSHMTPDLSDAMCCIVTGAENVKRALFTDGDVFRARYRRPLLLTGIDVGVIRPDLAERLLPLRLERPKVRRTEAELWTEYAEVLPVVLGSLLDLAVKVRAVEVETPTDLRMADFAHLCAQLDAATGFGALAAYRAALDDLNDDVIEGDLLAQTVLRHAADLEPGTTQRMTSTEWLHCLSQLYTGEEFRPLPKGWPTTGKVLSDRLKRLQPTLAARGVLIDSGRTYEGRYLEMTRAPATEGHHHHHH | not soluble
6 | MGSDKIHHHHHHMSLVVGSARIDENGHISGGKPGDQTGNEVSTQAYYVHSKGWYCLRPKSITVANAIAEAMLQGCRNNNIGYCQGHRSNVIEQLRRVGKLSKISVKTEADCSSLVRACCIQAGFDPGNFNTASEASALKATGQFMEAIAVTSKTELFNGDVLVTKTKGHTVVVVSGNPRHGNTYYPKYEGTSGSIITALAAVGEKDTSKAHRAKIAAANGITNYAYTAAQNTKMVNLLKKGKLIKA | not soluble
7 | MGSDKIHHHHHHMKVNTALGILAGKSSQFILKKLGRGTTLPGKIALKFDKHILDSLAKDYEVVVITGTNGKTLTTALTVGILQEAFGEITTNTSGANMITGITATFLSAKKNKKGKKIAVLEIDEASLARVTDFIKPSLIVFTNIFRDQMDRYGEIYTTYQMILDGAAKAPQATILANGDSPLFNSTNVINPVKYYGFATEEHEPRLAHYNTEGVLCPHCHQIIQYKLNTYANLGSYICNNCGFCRPELDYKLTDLKEITNTSSTFAIDGQDYKINIGGLYNIYNALAAVSVAAFFGVTPEKIKAGFDKSKAVFGRQETFKLGDKDCTLVLIKNPVGATQAIEMMKLAPYDFSLSVLLNANYADGIDTSWIWDADFEQITQMDIPQVFAGGVRSSEIARRLRVTGYPENQITETPKLEDIMALIEQSSSQHAYILATYTAMLEFRDLLAQRQAVGKEMK | not soluble
8 | MRGSHHHHHHTDPALRANKVAQYYRELVASLSERLRNGERDIDALVEQARERVIKTGELTRTEVDELTRAVRRDLEEFAMSYEESLKEESDSVFMRVIKESLWQELADITDKTQLEWREVFQDLNHHGVYHSGEVVGLGNLVCEKCHFHLPIYTPEVLTLCPKCGHDQFQRRPFEPGLCGR | soluble
9 | MGSDKIHHHHHHMKKVNYAAIDIGSNAVRLLIKCVNEENAPELMSKVQLIRIPLRLGEDAFTMGVISAEKEKKLIRLMKAYKQLMKIYDVVDYRACATSAMRDARNGKDIARQIARKTGIRVDIIDGQEEAHIVYDNHIEQLFASGQNYLYVDVGGGSTEINLISNGELKNSRSYNIGTVRMLSGMVKEEEKEALRTDLIGLAAEYAPTSIIGSGGNINKLFRLADKKDKKASLLPVESLREIYEALQALPAEQRIKQYKLKPDRADVIVPAAEIFLEVAMNVKATGIIVPTIGLSDGIIDSLYTQKMNTPVAPKVQ | not soluble
10 | MGSDKIHHHHHHMKGFLQTVTGPVAHTDMGLTLPHEHLFNDLSSVVDEPHYAFSQQLVGKKVSADLQWGLKHDPYCCADNMDRKEIDDVIFEINNFMSLGGRTIVDATGSESIGRDASALREVALKTGLNIVASSGPYLEKFESTRIHKPVELLASLIDKELNQGIGETDIRAGMIGEIGVSPAFTQAERNSLRAASLAQCNNPHTAMNIHMPGWLRLGDEVLDIVLEEMNVSPAKVSLAHSDPSGKDVVYQRKMLDRGVWLEFDMIGLDITFPKEGVAPGVQETADAVANLIALGYADQIVLSHDVFLKQMWAKNGGNGWGFVPNVFLAYLAARGVDNDTLRKLCIDNPARLLTA | not soluble
11 | MPQEKMARLYNLNYTIASQVNPHVVPFMQSDASRYRKDILSWPQRILRRQGKVISLGIMDFTRERLGNVPPVRRLLDHGYGIVGQRYYGDVNIIAPFNLRQYAYMLQNPRPHLFKLLQQQGERATWPKISAIETHARIGKTIQHCIEVLDYQKNRYIQAEKASALEHHHHHH | not soluble
12 | MGSDKIHHHHHHMEKVIYIVWRDPSTKPETFAHDLRTKLAQQLLQLGARGVQINVQDEDVAPAAALRQVNTLPQMDGLVSVWVDSAITSLRRPFDDAVLAATGRMAGYLVTESQPIRNTRHPARAGERTPGFSQLAFLKRPPRLTHEAWLDTWHNRHTQVAIDTQDTFLYVQNVVVRALTYGAPPLDAVVEEGFPEAAMTDPQAFFDAPGDEAKYQRNLAAMMESCQRFIDFDKIDVVASSQYIVRPPAA | not soluble
13 | MTSSPELARAVAATLARHVTDVVICPGSRNSPLSLELIARDDIRVHTRIDERSAAFLALGLARSSKRHVAVVTTSGTAVANCAPAMIEAAYSHTPLIMVSADRPERLHGTGANQTIEQRGIFNVVDTDHVVDITDLNSISFARNVIHINVALDVPLVDVLPEV | not soluble
14 | MTETEQTTAPIYPLKRNWTWWYLNDERNKSWEDRLKKVYTFNTVSEFWALYDAIRPPSGLNALCDYNVFRDDIQPMWEVPENSNGGRWLIVIDKGKTPEMVDAIWLEILMALVGEQFGKDMESICGLVCNVRGKGSKISVWTKDCNDDETNMRIGVVLKEKLMAASKDHSKPLFDVIRYEDHESCQKKTSSVVKAKLSLHSSDAPVAEKSAV | not soluble
15 | MQVASRVKARRLEMNLTQEGIALRAGMKLPTYRRFERTGEISFRGLLQIGFALNALQDFALLFDQRLYQTLDEVLAEQQPKRKRGSKK | not soluble
16 | EMEPEEERIRYSQRLRGTMRRRYEDDGISDDEIEGKRTFDLEEKLHTNKYNANFVTFMEGKDFNVEYIQRGGLRDPLIFKNSDGLGIKMPDPDFTVNDVKMCVGSRRMVDVMDVNTQKGIEMTMAQWTRYYETPEEEREKLYNVISLEFSHTRLENMVQRPSTVDFIDWVDNMWPRHLKESQTESTNAILEMQYPKVQKYCLMSVRGCYTDFHVDFGGTSVWYHIHQGGKVFWLIPPTAHNLELYENWLLSGKQGDIFLGDRVSDCQRIELKQGYTFVIPSGWIHAVYTPTDTLVFGGNFLHSFNIPMQLKIYNIEDRTRVPNKFRYPFYYEMCWYVLERYVYCITNRSHLTKEFQKESLSMDLELNGLESGNGDEEAVDREPRRLSSRRSVLTSPVANGVNLDYDGLGKTCRSLPSLKKTLAGDSSSDCSRGSHNGQVWDPQCAPRKDRQVHLTHFELEGLRCLVDKLESLPLHKKCVPTGIEDEDALIADVKILLEELANSDPKLALTGVPIVQWPKRDKLKFPTRPKVRVPTIPITKPHTMKPAPRLTPVRPAAASPIVSGARRRRVRCRKCKACVQGECGVCHYCRDMKKFGGPGRMKQSCVLRQCLAPRLPHSVTCSLCGEVDQNEETQDFEKKLMECCICNEIVHPGCLQMDGEGLLNEELPNCWECPKCYQEDSSEKAQKRKMEESDEEAVQAKVLRPLRSCDEPLTPPPHSPTSMLQLIHDPVSPRGMVTRSSPGAGPSDHHSASRDERFKRRQLLRLQATERTMVREKENNPSGKKELSEVEKAKIRGSYLTVTLQRPTKELHGTSIVPKLQAITASSANLRHSPRVLVQHCPARTPQRGDEEGLGGEEEEEEEEEEEDDSAEEGGAARLNGRGSWAQDGDESWMQREVWMSVFRYLSRRELCECMRVCKTWYKWCCDKRLWTKIDLSRCKAIVPQALSGIIKRQPVSLDLSWTNISKKQLTWLVNRLPGLKDLLLAGCSWSAVSALSTSSCPLLRTLDLRWAVGIKDPQIRDLLTPPADKPGQDNRSKLRNMTDFRLAGLDITDATLRLIIRHMPLLSRLDLSHCSHLTDQSSNLLTAVGSSTRYSLTELNMAGCNKLTDQTLIYLRRIANVTLIDLRGCKQITRKACEHFISDLSINSLYCLSDEKLIQKIS | soluble
17 | MLNIIRAGIYTSVQDSGRHGFRQSGLSHCGALDKPAFQTANLLVGNDANAPALEITLGQLVVEFENETWFALTGAGCEAQLDDQPVWTGWRLPVKAGQRLTLHRPLHGMRSYLAVAGGIAVPEVMGSYSTDLKSGIGGLEGRLLKDGDRLATGKPSRQFSGPQGVKQLLWGNRIRALPGPEYREFDRASQEAFWRSPWQLSPQSNRMGYRLQGQSLTRTTDRELLSHGLLPGVVQVPYNGQPIVLMNDAQTTGGYPRIACIIEADMYHLAQIPLGQPIHFVQCSLEEALNARRERQRYLEQLTWRLQHEHLEHHHHHH | not soluble
18 | MGSDKIHHHHHHMFQPLLDAFIESASIEKMVSKSPPPPLKIAVANWWGDEEIKEFKKSVLYFILSQRYAITLHQNPNESSDLVFSNPLGAARKILSYQNTKRVFYTGENESPNFNLFDYAIGFDELDFNDRYLRMPLYYAHLHYEAELVNDTTAPYKLKDNSLYALKKPSHHFKENHPNLCAVVNDESDLLKRGFASFVASNANAPMRNAFYDALNSIEPVTGGGSVRNTLGYKVGNKSEFLSQYKFNLCFENSQGYGYVTEKILDAYFSHTIPIYWGSPSVAKDFNPKSFVNVHDFNNFDEAIDYIKYLHTHPNAYLDMLYENPLNTLDGKAYFYQDLSFKKILDFFKTILENDTIYHNNPFIFYRDLHEPLISIDDLRVNYDDLRVNYDDLRVNYDDLRVNYDDLRVNYDDLRVNYDDLRVNYDDLRVNYDDLRVNYDDLRVNYDRLLQNASPLLELSQNTTFKIYRKAYQKSLPLLRTIRRWVKK | not soluble
19 | WNHDEEARGSVRWRTLFDTALTSENVILYAQSVHSISDATHKKALHEELTCRIRDPENGIVKASRFISAIRQVGYEAQMDRAVLHKFLKDFKENFDSSKNYALNLNVTPFSSREYFKWFRDELLQLSREQRKCLNFEFVEAQFVRHLDFMRPVAKMLAGLGCHLMVGQAGRTIVSTHYLKEVDIRYLKLHRSLVAKIDQRHENQLFVRSMLGAAANSKTKIIAVGIENQQELNTLLELGVYGGQGRYFSAE | not soluble
